The record followed here is patent publication US6399078.

For test [1], the target named is cell surface receptors on glycanase treated PBMC. The test can be described thus: saturation binding of 125I-RANTES-heparin complexes to glycanase treated activated human PBMC.
Test [2] has the same target. As to the kind of experiment: saturation binding of 125I-RANTES-heparin complexes to glycanase treated activated human PBMC, nonlinear curve fitting.
For test [3] the target is unchanged. The test can be described thus: saturation binding of 125I-RANTES-heparin complexes to glycanase treated activated human PBMC, gamma counting, nonlinear curve fitting after subtracting non-specific binding.
Test [4] deals with CCR5 (human) (UniProt P51681). As to the kind of experiment: flow cytometry of the activated human PBMC with mAb 2D7.
Test [5] has as its target CCR5 (human) (UniProt P51681). The test can be described thus: glycanase treated PBMC preincubated with mAb 2D7, then 125I-RANTES-heparin complexes as labelled ligand, gamma counting; reference normal mouse IgG.

UniProt P51681, sequence (P51681 whole entry): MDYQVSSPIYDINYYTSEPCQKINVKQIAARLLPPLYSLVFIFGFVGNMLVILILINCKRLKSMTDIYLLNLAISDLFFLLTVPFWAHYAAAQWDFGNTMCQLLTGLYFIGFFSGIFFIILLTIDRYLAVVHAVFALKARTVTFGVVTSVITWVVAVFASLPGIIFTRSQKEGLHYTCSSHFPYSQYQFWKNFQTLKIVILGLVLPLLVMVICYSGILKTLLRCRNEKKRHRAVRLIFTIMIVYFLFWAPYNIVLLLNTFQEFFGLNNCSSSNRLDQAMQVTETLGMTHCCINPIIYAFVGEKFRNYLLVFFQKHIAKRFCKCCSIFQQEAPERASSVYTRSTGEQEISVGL

A word on the Kd: it is the equilibrium constant for the complex coming apart. The substance “125I-labeled RANTES-heparin complexes (from UniProt P13501 24-91) (ligand)” yielded a saturating concentration in test [1] greater than 1 nM. For the same substance, in test [2], the Bmax (binding sites per cell) was determined as 900. Also, the Kd in test [3] amounted to 1.5 nM.
With anti-CCR5 monoclonal antibody 2D7, the percent of cells expressing CCR5 (stained by 2D7) in the test with CCR5 (human) [4] was found to be 100%. Further, the percent reduction of 125I-RANTES binding with CCR5 (human) [5] was found to be 40 percent.
